{"source": "patent EP4242225A1", "about": "(Consejo Superior De Investigaciones Científicas, dated 2023)", "binders": {"B1": {"name": "bispecific hcAb 1.29-1.10 (bispecific antibody)", "heavy": "QVQLVESGGGSVQAGGSLRLSCAASGYTINTDAVAWFRQAPGKGDERVAVIYTGSGNTNYADSVKGRFTISQDNAKNTVYLQMNSLKPEDTALYYCASGYYGASGYDFNNWGQGTQVTVSSGGGGSGGGGSGGGGSQVQLVESGGGSVQAGGSLRLSCAASGYTYSTCRKGWYRQAPGKERELVASITADGATYYLDSVKGRLTISQDNAKNTVYLQMNSLKPEDTAVYYCAASVKDFTCTFNSWGQGTQVTVSS"}, "B2": {"name": "hcAb 1.26 (Fc fusion)", "heavy": "QVQLVESGGGLVQAGGSLRLSCAATGYTWSSVCMGWFRQAPGKEREGVAGIPSGRNRPYYADSVKGRFTISQDNAKNAVFLLMNSLKPEDTAIYYCAPCSAPHDPEYNYWGQGTQVTVSS"}, "B3": {"name": "hcAb 1.10 (Fc fusion)", "heavy": "QVQLVESGGGSVQAGGSLRLSCAASGYTYSTCRKGWYRQAPGKERELVASITADGATYYLDSVKGRLTISQDNAKNTVYLQMNSLKPEDTAVYYCAASVKDFTCTFNSWGQGTQVTVSS"}, "B4": {"name": "hcAb 2.1 (Fc fusion)", "heavy": "QVQLVESGGGSVQAGGSLRLSCAAFGATISSAHMGWFRQAPGKEREGVAFRYTDGSSTYYTTSVRGRFTISQDNAKNTVYLQMNSLKPEDTAMYYCASNPSWGRLVGGQYNNWGQGTQITVSS", "notes": "also called 2.1Fc"}, "B5": {"name": "hcAb 2.15 (Fc fusion)", "heavy": "QVQLVESGGGSVQAGGSLKLSCAASGYASWARKCIGWFRQAPGQEREGVAAIFDFDGSTYYSDSVKGRFTISGDNAKNTVSLQMNSLLPKDTAVYYCTVAFGTCDNWYRGRGDYWGQGTQVTVSS"}, "B6": {"name": "hcAb 1.29 (Fc fusion)", "heavy": "QVQLVESGGGSVQAGGSLRLSCAASGYTINTDAVAWFRQAPGKGDERVAVIYTGSGNTNYADSVKGRFTISQDNAKNTVYLQMNSLKPEDTALYYCASGYYGASGYDFNNWGQGTQVTVSS"}, "B7": {"name": "hcAb 2.20 (Fc fusion)", "heavy": "QVQLVESGGGSVQAGGSLRLSCAASGYTYNNYYMGWFRQAPGKEREGVAAINSDGLDTYVADSVKGRFTISRDNAKDTVHLQMNSLKPEDTAIYSCATGRTVYYSGYDFRLSVDDYWGQGTQVTVSS", "notes": "also called 2.20Fc; 2.20 hcAb"}, "B8": {"name": "hcAb 1.16 (Fc fusion)", "heavy": "QVQLVESGGGSVQAGGSLRLSCAASGNTSKRKCVGWFRRAPGKEREGVTLIYTVGGSTVYADSVKGRFTISQDNAKDTVYLQMNSLKPEDSAMYYCAAESWGRQCNLETHRFTFWGQGTQVTVSS", "notes": "also called 1.16Fc"}, "B9": {"name": "hcAb 2.11 (Fc fusion)", "heavy": "QVQLVESGGGSVQAGGSLRLSCAASGDASNRKCVSWFRRAPGKEREGVALIFPVGSSTAYADSVKGRFTISQDSAKDTVYLQMNNLKPEDSGTYYCAAVSWGGRCNLETQTVTFWGQGTQVTVSS", "notes": "also called 2.11Fc"}, "B10": {"name": "Nb 1.26 (VHH)", "VHH": "B2 heavy"}, "B11": {"name": "Nb 1.29 (VHH)", "VHH": "B6 heavy"}, "B12": {"name": "Nb 2.1 (VHH)", "VHH": "B4 heavy"}, "B13": {"name": "Nb 2.11 (VHH)", "VHH": "B9 heavy"}, "B14": {"name": "Nb 2.20 (VHH)", "VHH": "B7 heavy"}, "B15": {"name": "Nb 1.16 (VHH)", "VHH": "B8 heavy"}}}
{"target": "T1, RBD-Fc, Wuhan strain (WA1) (SARS-CoV-2; human, UniProt P0DTC2 332-534)", "T1 construct": "range 332-534; also called WA1 RBD; WA1 RBD-Fc", "assay": "ELISA, biotin-labeled bispecific hcAb on plate-bound RBD-Fc"}
{"binder": "B1", "binding result": "binds"}
{"target": "S protein of SARS-CoV-2 on pseudotyped retroviral particles (Spp) (SARS-CoV-2, UniProt P0DTC2 14-1273)", "assay": "cell-based or functional assay", "units": {"inhibition of Spp entry into Vero-E6 cells (luciferase, 48 h.p.i.)": "%"}}
{"binder": "B2", "inhibition of Spp entry into Vero-E6 cells (luciferase, 48 h.p.i.)": "≥ 90"}
{"binder": "B3", "inhibition of Spp entry into Vero-E6 cells (luciferase, 48 h.p.i.)": "> 90"}
{"binder": "B4", "inhibition of Spp entry into Vero-E6 cells (luciferase, 48 h.p.i.)": "> 90"}
{"binder": "B5", "inhibition of Spp entry into Vero-E6 cells (luciferase, 48 h.p.i.)": "> 90"}
{"binder": "B6", "inhibition of Spp entry into Vero-E6 cells (luciferase, 48 h.p.i.)": "≥ 90"}
{"binder": "B7", "inhibition of Spp entry into Vero-E6 cells (luciferase, 48 h.p.i.)": "≥ 90"}
{"target": "T2, RBD-FH, monomeric RBD (332-534) with a FLAG peptide and an 8xHis-tag at the C-terminus (SARS-CoV-2, UniProt P0DTC2 332-534)", "assay": "not given", "units": {"Kd": "nM", "koff": "s⁻¹", "kon": "M⁻¹ s⁻¹"}}
{"binder": "B2", "Kd": 0.08, "koff": 0.000148, "kon": "1.76e+06"}
{"binder": "B4", "Kd": 0.36, "koff": 0.000281, "kon": 771000}
{"binder": "B6", "Kd": 0.63, "koff": 0.000221, "kon": 353000}
{"binder": "B7", "Kd": 0.21, "koff": 0.000233, "kon": "1.09e+06"}
{"binder": "B8", "Kd": 0.25, "koff": 0.000438, "kon": "1.72e+06"}
{"binder": "B9", "Kd": 0.16, "koff": 0.0003, "kon": "1.82e+06"}
{"target": "T2, RBD-FH, monomeric RBD (332-534) with a …", "assay": "not given", "remark": "another data set of the same source", "units": {"Kd": "nM", "koff": "s⁻¹", "kon": "M⁻¹ s⁻¹"}}
{"binder": "B10", "Kd": 0.26, "koff": 0.000624, "kon": "2.44e+06"}
{"binder": "B11", "Kd": 12.9, "koff": 0.00614, "kon": 476000}
{"binder": "B12", "Kd": 1.74, "koff": 0.00233, "kon": "1.34e+06"}
{"binder": "B13", "Kd": 1.72, "koff": 0.0054, "kon": "3.15e+06"}
{"binder": "B14", "Kd": 0.77, "koff": 0.00101, "kon": "1.3e+06"}
{"binder": "B15", "Kd": 3.59, "koff": 0.00705, "kon": "1.96e+06"}
{"target": "T3, monomeric RBD of SARS-CoV-2 S (WA1) (SARS-CoV-2, UniProt P0DTC2 332-534)", "T3 construct": "domain: RBD", "assay": "ELISA, hcAb dilutions on plate-bound monomeric RBD", "units": {"EC50": "nM"}}
{"binder": "B2", "EC50": 1}
{"binder": "B6", "EC50": 35}
